# This sample holds only a part of the variants without activity.
# What was measured:
# biotinyl-Trp-oxazolone = test: self-aminoacylation, catalytic enhancement (BWO) (fold over background); higher = more active; k-Seq, kA / k0A0; sequences stand for … in GGGAAUGGAUCCACAUCUACGAAUUC…UUCACUGCAGACUUGACGAAGCUG
# Outline: (§1)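 Catalytic enhancement equals the median kA over the uncatalyzed rate, the latter read from the low-activity peak of a bimodal Gaussian fit. Values of kA came from fitting each sequence's fraction reacted to a pseudo-first-order model, with 1000 bootstraps. Reacted RNA was captured with streptavidin and quantified by triplicate qPCR and Illumina sequencing after 90 minutes at room temperature with 2–1250 μM biotinyl-aminoacyl-oxazolone and 0.43 μM mutagenized RNA pools bearing a 21-nt variable region.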
# biotinyl-Ile-oxazolone = test: self-aminoacylation, catalytic enhancement (BIO) (fold over background); higher = more active; k-Seq, kA / k0A0; sequences stand for … in GGGAAUGGAUCCACAUCUACGAAUUC…UUCACUGCAGACUUGACGAAGCUG
# Outline: as §1
# biotinyl-Met-oxazolone = test: self-aminoacylation, catalytic enhancement (BMO) (fold over background); higher = more active; k-Seq, kA / k0A0; sequences stand for … in GGGAAUGGAUCCACAUCUACGAAUUC…UUCACUGCAGACUUGACGAAGCUG
# Outline: as §1
# biotinyl-Val-oxazolone = test: self-aminoacylation, catalytic enhancement (BVO) (fold over background); higher = more active; k-Seq, kA / k0A0; sequences stand for … in GGGAAUGGAUCCACAUCUACGAAUUC…UUCACUGCAGACUUGACGAAGCUG
# Outline: as §1
# biotinyl-Leu-oxazolone = test: self-aminoacylation, catalytic enhancement (BLO) (fold over background); higher = more active; k-Seq, kA / k0A0; sequences stand for … in GGGAAUGGAUCCACAUCUACGAAUUC…UUCACUGCAGACUUGACGAAGCUG
# Outline: as §1
# biotinyl-Phe-oxazolone = test: self-aminoacylation, catalytic enhancement (BFO) (fold over background); higher = more active; k-Seq, kA / k0A0; sequences stand for … in GGGAAUGGAUCCACAUCUACGAAUUC…UUCACUGCAGACUUGACGAAGCUG
# Outline: as §1
Sequence,self-aminoacylation (biotinyl-Trp-oxazolone),self-aminoacylation (biotinyl-Ile-oxazolone),self-aminoacylation (biotinyl-Met-oxazolone),self-aminoacylation (biotinyl-Val-oxazolone),self-aminoacylation (biotinyl-Leu-oxazolone),self-aminoacylation (biotinyl-Phe-oxazolone)
ACACACUUCAAGCAAUCGCUC [Fam1B.1 aminoacylation ribozyme variant],2.57,1.84,1.63,1.92,1.75,2.24
ACAUUUGCUAAUAGUCGCAAG [Fam3.1 aminoacylation ribozyme variant],1.32,2.46,1.79,1.92,2.43,2.27
ACCCACUUCAAGCAAUCGGUC [Fam1B.1 aminoacylation ribozyme variant],15.2,1.11,1.15,1.29,1.37,23.3
ACGCACCUAGGUCAUCGGGUG [Fam2.2 aminoacylation ribozyme variant],4.93,3.42,4.23,3.55,3.1,29
ACGUUUGCUAAUACUCGCAAG [Fam3.1 aminoacylation ribozyme variant],0.897,1.12,0.968,0.9,0.909,1.88
ACUAACCUGGUCAUCGAGUGA [Fam2.1 aminoacylation ribozyme variant],5.42,3.19,4.84,2.91,3.83,2.68
ACUACCCUGAUCAUCGAGUGA [Fam2.1 aminoacylation ribozyme variant],7.58,3.87,5.52,3.38,5.88,6.61
ACUACCCUGGUCAUCGAGUGA [Fam2.1 aminoacylation ribozyme variant],45.2,16.2,44.3,17.4,43.4,266
ACUACCCUGGUCAUGGAGUGA [Fam2.1 aminoacylation ribozyme variant],3.33,2.86,3.35,2.59,3.32,11.6
ACUACCCUUGUCAUCGAGUGA [Fam2.1 aminoacylation ribozyme variant],6.54,3.28,6.22,3.24,6.34,28.7
ACUACCGUGGUCAUCGAGUGA [Fam2.1 aminoacylation ribozyme variant],6.91,3.41,5.28,3.29,5.21,18
ACUACGCUGGUCAUCGAGUGA [Fam2.1 aminoacylation ribozyme variant],7.58,4.74,5.77,4.04,5.5,35.1
ACUCACCUAAGUCAUCGGGUG [Fam2.2 aminoacylation ribozyme variant],10.6,5.02,9.14,5.83,10.5,67.2
ACUCACCUACGUCAUCGGGUG [Fam2.2 aminoacylation ribozyme variant],6.64,3.98,6.25,4.69,7.79,57.3
ACUCACCUAGGGCAUCGGGUG [Fam2.2 aminoacylation ribozyme variant],6.35,4.42,3.92,3.83,5.19,18.2
ACUCACCUAGGUAAUCGGGUG [Fam2.2 aminoacylation ribozyme variant],4.3,3.22,4.2,2.85,3.66,23.9
ACUCACCUAGGUCAUCGGAUG [Fam2.2 aminoacylation ribozyme variant],1.48,1.13,0.912,1.02,0.812,0.718
ACUCACCUAGGUCAUCUGGUG [Fam2.2 aminoacylation ribozyme variant],2.35,1.68,1.87,1.57,2.03,6.43
ACUCACCUAGGUCAUUGGGUG [Fam2.2 aminoacylation ribozyme variant],3.78,2.31,2.35,2.56,2.91,14.3
ACUCACCUAGGUUAUCGGGUG [Fam2.2 aminoacylation ribozyme variant],7.29,4.89,3.92,5.05,5.42,46
ACUCAUCUAGGUCAUCGGGUG [Fam2.2 aminoacylation ribozyme variant],7.26,5.55,6.28,5.04,6.97,42.4
ACUUUUGCUAAUAGUCGCAAG [Fam3.1 aminoacylation ribozyme variant],2.56,2.75,2.59,2.57,2.68,3.71
AGGUUUGCUAACAGUCGCAAG [Fam3.1 aminoacylation ribozyme variant],4.91,1.57,1.68,1.25,1.66,15.2
AGGUUUGCUAAUAGUCGAAAG [Fam3.1 aminoacylation ribozyme variant],3.4,1.2,1.16,1.02,0.991,13.6
AGGUUUGCUAAUAGUCGCAAU [Fam3.1 aminoacylation ribozyme variant],2.08,2.08,1.63,1.85,1.86,2.94
AGGUUUGCUAUUAGUCGCAAG [Fam3.1 aminoacylation ribozyme variant],1.08,1.28,1.17,1.17,1.49,3.21

Sequence,self-aminoacylation (biotinyl-Trp-oxazolone),self-aminoacylation (biotinyl-Ile-oxazolone),self-aminoacylation (biotinyl-Met-oxazolone),self-aminoacylation (biotinyl-Val-oxazolone),self-aminoacylation (biotinyl-Leu-oxazolone),self-aminoacylation (biotinyl-Phe-oxazolone)
AGUAACCUAGGUCAUCGGGUG [Fam2.2 aminoacylation ribozyme variant],7.15,4.57,5.37,3.63,6.07,33.3
AGUACACUGGUCAUCGAGUGA [Fam2.1 aminoacylation ribozyme variant],5.76,3.01,4.07,2.81,4.42,19.1
AGUACCCCGGUCAUCGAGUGA [Fam2.1 aminoacylation ribozyme variant],7.21,3.7,5.52,3.75,6.8,43.9
AGUACCCGGGUCAUCGAGUGA [Fam2.1 aminoacylation ribozyme variant],7.64,4.51,7.25,3.98,7.7,49.1
AGUACCCUGGACAUCGAGUGA [Fam2.1 aminoacylation ribozyme variant],5.83,2.69,5.06,2.8,6.32,21.2
AGUACCCUGGCCAUCGAGUGA [Fam2.1 aminoacylation ribozyme variant],4.09,2.53,3.41,3.11,4.09,10.2
AGUACCCUGGUCAUCAAGUGA [Fam2.1 aminoacylation ribozyme variant],2.89,1.61,2.28,1.75,2.35,3.2
AGUACCCUGGUCAUCGAGCGA [Fam2.1 aminoacylation ribozyme variant],1.89,1.94,2.19,1.9,2.28,1.16
AGUACCCUGGUCAUCGAUUGA [Fam2.1 aminoacylation ribozyme variant],1.58,1.09,0.999,0.981,1.07,1.09
AGUACCCUGGUCAUCGGGUGA [Fam2.1 aminoacylation ribozyme variant],19.6,9.32,17.7,9.99,19,82.1
AGUACCCUGGUCAUCUAGUGA [Fam2.1 aminoacylation ribozyme variant],8.37,3.73,7.51,3.93,8.87,47.9
AGUACCCUGGUCUUCGAGUGA [Fam2.1 aminoacylation ribozyme variant],7.11,3.54,5.41,3.27,5.96,31.2
AGUCAACUAGGUCAUCGGGUG [Fam2.2 aminoacylation ribozyme variant],9.37,5.91,7.24,4.95,8.39,49.9
AGUCACCUACGUCAUCGGGUG [Fam2.2 aminoacylation ribozyme variant],5.27,3.49,4.95,4.21,6.83,32.4
AGUCACCUAGCUCAUCGGGUG [Fam2.2 aminoacylation ribozyme variant],2.81,2.6,2.42,3.12,2.79,13.9
AGUCACCUAGGCCAUCGGGUG [Fam2.2 aminoacylation ribozyme variant],5.32,3.31,3.86,3.96,3.53,25
AGUCACCUAGGGCAUCGGGUG [Fam2.2 aminoacylation ribozyme variant],6.69,4.43,3.71,3.45,4.67,34.4
AGUCACCUAGGUAAUCGGGUG [Fam2.2 aminoacylation ribozyme variant],3.64,3.27,3.4,2.75,3.37,25.4
AGUCACCUAGGUCAGCGGGUG [Fam2.2 aminoacylation ribozyme variant],5.59,4.2,4.31,3.77,5.54,39.5
AGUCCCCUAGGUCAUCGGGUG [Fam2.2 aminoacylation ribozyme variant],11.4,8.61,12,7.97,16.9,93.9
AUAACCCAGGUCAUCGAGUGA [Fam2.1 aminoacylation ribozyme variant],6.13,2.67,5.5,2.95,4.72,19.3
AUAACCCGGGUCAUCGAGUGA [Fam2.1 aminoacylation ribozyme variant],7.61,3.78,6.42,3.29,8.98,45.7
AUAACCCUCGUCAUCGAGUGA [Fam2.1 aminoacylation ribozyme variant],3.79,1.89,3.43,2.13,3.59,10.7
AUAACCCUGGGCAUCGAGUGA [Fam2.1 aminoacylation ribozyme variant],6.57,3,5.93,2.59,6,33.7
AUAACCCUGGUCACCGAGUGA [Fam2.1 aminoacylation ribozyme variant],10.2,4.78,8.82,4.06,9.68,44

# Source: the supplement of paper PMC9233669
